Data taken from patent WO2015087187A1 (dated 2015).
Positions count from the first letter of the chain named.

T1: recombinant human SOST (rhSOST) (human, UniProt Q9BQB4 24-213)
T1 sequence: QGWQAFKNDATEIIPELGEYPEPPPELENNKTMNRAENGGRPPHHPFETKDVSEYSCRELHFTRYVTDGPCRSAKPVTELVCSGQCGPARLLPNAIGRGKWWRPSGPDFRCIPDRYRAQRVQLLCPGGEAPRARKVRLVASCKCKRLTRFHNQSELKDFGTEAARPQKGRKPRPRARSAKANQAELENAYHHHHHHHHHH

B1: DP1 (antibody, human IgG2, kappa, V domains shown)
VH: EVQLVESGGGLVQPGGSLRLSCAASGFTFSIYAMSWVRQAPGKGLEWVALISGGDTYTYYADSVKGRFTISRDNAKNSLYLQMNSLRAEDTAVYYCARHGYDDFDYWGQGTLVTVSS
VL: DVVMTQSPLSLPVTLGQPASISCRSSQSLLDNDGETYLNWFQQRPGQSPRRLIYQVSKLDSGVPDRFSGSGSGTDFTLKISRVEAEDVGVYYCWQGTHFPHTFGGGTKVEIKR
notes: also called pH1/pL1
B2: DM21 (antibody, V domains shown)
VH: EVQLLESGGGLVQPGGSLRLSCAASGHTFSDYWMQWVRQAPGKGLEWIGAIYPGDGDTRYNQKFKDRFTISRDNSKNTLYLQMNSLRAEDTAVYYCARSMDYWGQGTLVTVSS
VL: DIVMTQSPDSLAVSLGERATINCRASKTVDSYGNSFMHWFQQKPGQPPKLLIYHSSNLESGVPDRFSGSGSGTDFTLTISSLQAEDVAVYYCLQTIEDPYTFGQGTKLEIK
notes: also called mH1/mL2
B3: DM4 (antibody, human IgG2, kappa, V domains shown)
VH: B2 VH with I48V
VL: DIVMTQSPDSLAVSLGERATINCRASKTVDSYGNSFMHWFQQKPGQPPKLLIHHSSNLESGVPDRFSGSGSGTDFTLTISSLQAEDVAVYYCLQTIEFPYTFGQGTKLEIKR
notes: mAb names lost in this copy; also called mH10/mL13
B4: DP99 (antibody, V domains shown)
VH: EVMLAESGGGLVQPGGSLQLSCAASGFTFSIYAMSWVRQTPEKRLEWVATISGGDTYTYYADSVKGRFTISRDNAKNTLYLHMTGLRSEDTALYYCARHGYDDFDYWGLGTTLTVSS
VL: DVVLTQIPLTLSVTIGQPATISCKSSQSLLDNDGETYLNWLLVRPGQSPKRLIYQVSKLDSGFPERFTGGGSGTDFTLKISRVEAEDLGIYYCWQGTHFPHTFGGGTKLEIK
notes: also called pH99/pL99
B5: DM30 (antibody, V domains shown)
VH: B2 VH with I48V
VL: B2 VL with F40Y
notes: also called mH10/mL3
B6: DM32 (antibody, V domains shown)
VH: B2 VH with H27F, I48V
VL: B2 VL
notes: also called mH11/mL2
B7: DM25 (antibody, V domains shown)
VH: B2 VH with S30T, I48V
VL: B2 VL with Y53H
notes: also called mH4/wt
B8: DM24 (antibody, V domains shown)
VH: B2 VH with H27F
VL: B2 VL
notes: also called mH3/mL2
B9: DM34 (antibody, V domains shown)
VH: B2 VH with H27F, I48V
VL: B2 VL with F40Y, P99S
notes: also called mH11/mL19
B10: DM23 (antibody, V domains shown)
VH: B2 VH with H27F
VL: B2 VL with Y53H
notes: also called mH3/wt
B11: DM33 (antibody, V domains shown)
VH: B2 VH with H27F, I48V
VL: B2 VL with F40Y, D98H
notes: also called mH11/mL15
B12: DM31 (antibody, V domains shown)
VH: B2 VH with I48V
VL: B2 VL with F40Y, P99S
notes: also called mH10/mL19
B13: DM26 (antibody, V domains shown)
VH: B2 VH with S30T, G49S
VL: B2 VL with Y53H
notes: also called mH5/wt
B14: DM28 (antibody, V domains shown)
VH: B2 VH with S30T, N61A, K63S, F64V, D66G
VL: B2 VL with Y53H
notes: also called mH8/wt
B15: DM29 (antibody, V domains shown)
VH: B2 VH with I48V
VL: B2 VL
notes: also called mH10/mL2

These binders were tested against T1, recombinant human SOST (rhSOST) (assay: cell-based or functional assay).

Row | EC50, neutralization of rhSOST-mediated inhibition of Wnt-10B luciferase reporter activity in U-2OS-TF-Wnt10B cells | EC50, restoring WNT10b-stimulated luciferase activity suppressed by 1 ug/ml rhSOST in U2OS TOPFlash cells [nM] | Binder
1 | 22 ug/ml (printed 'Mg/ml') | – | B1
2 | 5.53 ug/ml (printed 'Mg/ml') | – | B2
3 | 2.07 ug/ml (printed 'Mg/ml') | – | B3
4 | 5.95 ug/ml (printed 'Mg/ml') | 37 | B4

What follows are binders tested against T1, recombinant human SOST (rhSOST) (assay: SPR Biacore T200, IgG captured via anti-human Fc, rhSOST analyte, 37 C).

Row | Kd [nM] | koff [s⁻¹] | kon [M⁻¹ s⁻¹] | Binder
5 | 3.7 | 0.00667 | 1.8e+06 | B1
6 | 0.008 | 7.41e-05 | 8.86e+06 | B2
7 | 0.13 | 0.000508 | 3.91e+06 | B3
8 | 0.045 | 0.000239 | 5.34e+06 | B5
9 | 0.054 | 0.000419 | 7.75e+06 | B6
10 | 0.017 | 0.000101 | 5.81e+06 | B7
11 | 0.035 | 0.000239 | 6.9e+06 | B8
12 | 1.65 | 0.00356 | 2.16e+06 | B9
13 | 0.01 | 0.000134 | 1.39e+07 | B10
14 | 0.093 | 0.000563 | 6.03e+06 | B11
15 | 0.816 | 0.00171 | 2.1e+06 | B12
16 | 0.053 | 0.000222 | 4.2e+06 | B13
17 | 0.099 | 0.00035 | 3.52e+06 | B14
18 | 0.014 | 0.000101 | 7.41e+06 | B15
19 | 0.103 | 0.003 | 2.9e+07 | B4
